Reference: patent publication US20190389914A1 (University of California, published 2019)
Residue numbers refer to the chain shown, from its start.

Legend:
Experiment in all cases: Y2H, beta-gal staining
[1] = molecular target: T1, GAL4 activation domain fusion to HAB1 E203T (Arabidopsis thaliana (Mouse-ear cress), UniProt Q9CAJ0 4-511)
T1 construct: Mutant of the pACT-HAB1 template, which lacks the three N-terminal amino acids of HAB1
T1 sequence: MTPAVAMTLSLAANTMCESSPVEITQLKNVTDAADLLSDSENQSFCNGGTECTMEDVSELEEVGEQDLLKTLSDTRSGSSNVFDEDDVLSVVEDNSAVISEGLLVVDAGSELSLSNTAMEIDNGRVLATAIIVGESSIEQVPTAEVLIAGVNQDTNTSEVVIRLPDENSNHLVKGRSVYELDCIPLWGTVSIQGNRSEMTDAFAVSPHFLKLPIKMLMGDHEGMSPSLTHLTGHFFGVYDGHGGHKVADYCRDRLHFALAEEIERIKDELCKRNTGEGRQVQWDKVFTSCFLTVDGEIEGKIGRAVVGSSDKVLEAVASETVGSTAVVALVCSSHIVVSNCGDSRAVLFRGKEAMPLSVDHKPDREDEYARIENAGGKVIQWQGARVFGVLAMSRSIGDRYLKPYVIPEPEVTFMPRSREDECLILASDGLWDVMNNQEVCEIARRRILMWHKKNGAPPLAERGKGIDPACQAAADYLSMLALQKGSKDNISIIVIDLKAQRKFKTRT

[2] = molecular target: T2, GAL4 activation domain fusion to HAB1 V393Q (Arabidopsis thaliana (Mouse-ear cress), UniProt Q9CAJ0 4-511)
T2 construct: Mutant of the pACT-HAB1 template, which lacks the three N-terminal amino acids of HAB1
T2 sequence: T1 sequence with T200E, V390Q

[3] = molecular target: T3, GAL4 activation domain fusion to HAB1 V393K (Arabidopsis thaliana (Mouse-ear cress), UniProt Q9CAJ0 4-511)
T3 construct: Mutant of the pACT-HAB1 template, which lacks the three N-terminal amino acids of HAB1
T3 sequence: T1 sequence with T200E, V390K

[4] = molecular target: T4, GAL4 activation domain fusion to HAB1 E203W (Arabidopsis thaliana (Mouse-ear cress), UniProt Q9CAJ0 4-511)
T4 construct: Mutant of the pACT-HAB1 template, which lacks the three N-terminal amino acids of HAB1
T4 sequence: T1 sequence with T200W

[5] = molecular target: T5, GAL4 activation domain fusion to HAB1^V393R (Arabidopsis thaliana (Mouse-ear cress), UniProt Q9CAJ0 4-511)
T5 construct: Mutant of the pACT-HAB1 template, which lacks the three N-terminal amino acids of HAB1; Denoted HAB1^!
T5 sequence: T1 sequence with T200E, V390R

Measured: binding result

B1: GAL4 DNA binding domain fusion to PYR1 (pBD-PYR1), wild type (receptor)
chain: MKLLSSIEQACDICRLKKLKCSKEKPKCAKCLKNNWECRYSPKTKRSPLTRAHLTEVESRLERLEQLFLLIFPREDLDMILKMDSLQDIKALLTGLFVQDNVNKDAVTDRLASVETDMPLTLRQHRISATSSSEESSNKGQRQLTVSMPSELTPEERSELKNSIAEFHTYQLDPGSCSSLHAQRIHAPPELVWSIVRRFDKPQTYKHFIKSCSVEQNFEMRVGCTRDVIVISGLPANTSTERLDILDDERRVTGFSIIGGEHRLTNYKSVTTVHRFEKENRIWTVVLESYVVDMPEGNSEDDTRMFADTVVKLNLQKLATVAEAMARNSGDGSGSQVT
notes: Yeast two-hybrid bait expressed in S. cerevisiae; also called WT
no binding (tested: 10 µM ABA): all assays above
